In US20240150490A1 (MABPRO A S, published 2024):
Positions count from the first letter of the chain named.

B1: CA9hu-2_HC1LC5 (antibody, V domains shown)
VH: EVQLVESGGGLVQPGGSLKLSCAASGFTFNTNAMHWVRQASGKGLEWVGRIRSKSNNYTTYYADSVKDRFTISRDDSKNTAYLQMNSLKTEDTAVYYCVCGSWFAYWGQGTLVTVSS
VL: DIVMTQSPDSLAVSLGERATINCKSSQSLLNSSNQKNYLAWYQQKPGQPPKLLIYFTSTRQSGVPDRFSGSGSGTDFTLTISSLQAEDVAVYYCQQHYSIPLTFGQGTKLEIK
notes: Humanized from murine IV/18; also called HC1LC5 (CA9hu-2)
B2: CA9hu-2_HC3LC3 (antibody, V domains shown)
VH: QVQLVESGGGVVQPGGSLRLSCAASGFTFNTNAMHWVRQAPGRGLEWVARIRSKSNNYTTYYADSVKDRFTISRDNSKNTLYLQVNSLRAEDTAVYYCVCGSWFAYWGQGTLVTVSS
VL: B1 VL with V3Q, Y93F, L110V
notes: Humanized from murine IV/18; also called HC3LC3 (CA9hu-2)
B3: CA9hu-2_HC3LC2 (antibody, V domains shown)
VH: B2 VH
VL: B1 VL with Y42F, K51N, L53V, S82N, Y93F, K109Q, L110V
notes: Humanized from murine IV/18; also called HC3LC2 (CA9hu-2)
B4: CA9hu-2_HC3LC1 (antibody, V domains shown)
VH: B2 VH
VL: B1 VL with I2V, A19V, P49S
notes: Humanized from murine IV/18; also called HC3LC1 (CA9hu-2)
B5: CA9hu-2_HC4LC2 (antibody, V domains shown)
VH: B2 VH with Q1E, G16R, R43K, V85M
VL: B1 VL with Y42F, K51N, L53V, S82N, Y93F, K109Q, L110V
notes: Humanized from murine IV/18; also called HC4LC2 (CA9hu-2)
B6: CA9hu-2_HC3LC4 (antibody, V domains shown)
VH: B2 VH
VL: B1 VL with Y42F, L52V, S69T
notes: Humanized from murine IV/18; also called HC3LC4 (CA9hu-2)
B7: CA9hu-2_HC4LC5 (antibody, V domains shown)
VH: B2 VH with Q1E, G16R, R43K, V85M
VL: B1 VL
notes: Humanized from murine IV/18; also called HC4LC5 (CA9hu-2)
B8: CA9hu-2_HC5LC1 (antibody, V domains shown)
VH: B1 VH with L112T
VL: B1 VL with I2V, A19V, P49S
notes: Humanized from murine IV/18; also called HC5LC1 (CA9hu-2)
B9: CA9hu-2_HC5LC2 (antibody, V domains shown)
VH: B1 VH with L112T
VL: B1 VL with Y42F, K51N, L53V, S82N, Y93F, K109Q, L110V
notes: Humanized from murine IV/18; also called HC5LC2 (CA9hu-2)
B10: CA9hu-2_HC4LC4 (antibody, V domains shown)
VH: B2 VH with Q1E, G16R, R43K, V85M
VL: B1 VL with Y42F, L52V, S69T
notes: Humanized from murine IV/18; also called HC4LC4 (CA9hu-2)
B11: CA9hu-2_HC1LC1 (antibody, V domains shown)
VH: B1 VH
VL: B1 VL with I2V, A19V, P49S
notes: Humanized from murine IV/18; also called HC1LC1 (CA9hu-2)
B12: CA9hu-2_HC2LC1 (antibody, V domains shown)
VH: B1 VH with N79S
VL: B1 VL with I2V, A19V, P49S
notes: Humanized from murine IV/18; also called HC2LC1 (CA9hu-2)
B13: CA9hu-2_HC4LC1 (antibody, V domains shown)
VH: B2 VH with Q1E, G16R, R43K, V85M
VL: B1 VL with I2V, A19V, P49S
notes: Humanized from murine IV/18; also called HC4LC1 (CA9hu-2)
B14: CA9hu-2_HC1LC4 (antibody, V domains shown)
VH: B1 VH
VL: B1 VL with Y42F, L52V, S69T
notes: Humanized from murine IV/18; also called HC1LC4 (CA9hu-2)
B15: CA9hu-2_HC2LC3 (antibody, V domains shown)
VH: B1 VH with N79S
VL: B1 VL with V3Q, Y93F, L110V
notes: Humanized from murine IV/18; also called HC2LC3 (CA9hu-2)
B16: CA9hu-2_HC5LC4 (antibody, V domains shown)
VH: B1 VH with L112T
VL: B1 VL with Y42F, L52V, S69T
notes: Humanized from murine IV/18; also called HC5LC4 (CA9hu-2)
B17: CA9hu-2_HC2LC2 (antibody, V domains shown)
VH: B1 VH with N79S
VL: B1 VL with Y42F, K51N, L53V, S82N, Y93F, K109Q, L110V
notes: Humanized from murine IV/18; also called HC2LC2 (CA9hu-2)
B18: CA9hu-2_HC1LC2 (antibody, V domains shown)
VH: B1 VH
VL: B1 VL with Y42F, K51N, L53V, S82N, Y93F, K109Q, L110V
notes: Humanized from murine IV/18; also called HC1LC2 (CA9hu-2)
B19: CA9hu-2_HC2LC5 (antibody, V domains shown)
VH: B1 VH with N79S
VL: B1 VL
notes: Humanized from murine IV/18; also called HC2LC5 (CA9hu-2)
B20: CA9hu-2_HC5LC5 (antibody, V domains shown)
VH: B1 VH with L112T
VL: B1 VL
notes: Humanized from murine IV/18; also called HC5LC5 (CA9hu-2)
B21: CA9hu-2_HC2LC4 (antibody, V domains shown)
VH: B1 VH with N79S
VL: B1 VL with Y42F, L52V, S69T
notes: Humanized from murine IV/18; also called HC2LC4 (CA9hu-2)
B22: CA9hu-2_HC1LC3 (antibody, V domains shown)
VH: B1 VH
VL: B1 VL with V3Q, Y93F, L110V
notes: Humanized from murine IV/18; also called HC1LC3 (CA9hu-2)
B23: CA9hu-2_HC5LC3 (antibody, V domains shown)
VH: B1 VH with L112T
VL: B1 VL with V3Q, Y93F, L110V
notes: Humanized from murine IV/18; also called HC5LC3 (CA9hu-2)
B24: CA9hu-2_HC3LC5 (antibody, V domains shown)
VH: B2 VH
VL: B1 VL
notes: Humanized from murine IV/18; also called HC3LC5 (CA9hu-2)
B25: CA9hu-2_HC4LC3 (antibody, V domains shown)
VH: B2 VH with Q1E, G16R, R43K, V85M
VL: B1 VL with V3Q, Y93F, L110V
notes: Humanized from murine IV/18; also called HC4LC3 (CA9hu-2)
B26: CA9hu-1_HC5LC3 (antibody, V domains shown)
VH: EVQLVESGGGLVQPGGSLRLSCAASGFTFTDYYMHWVRQAPGKGLEWVGFIRNKASGYTPQYSASVKGRFTISRDDSKNSLYLQMNSLKTEDTAVYYCVRGGHAGSNYWYFDVWGQGTMVTVSS
VL: DIQMTQSPSSLSASVGDRVTITCHVSQNINVWLSWYQQKPGEAPKLLIYQASNLHTGVPSRFSGSGSGTDFTLTISSLQPEDFATYYCQQGQSYPFTFGQGTKLEIK
notes: Humanized from murine VII/20; also called HC5LC3 (CA9hu-1)
B27: CA9hu-1_HC1LC4 (antibody, V domains shown)
VH: B26 VH with G49A, T90I, M119T
VL: B26 VL with T22N, D70G, S76R, F83Y
notes: Humanized from murine VII/20; also called HC1LC4 (CA9hu-1)
B28: CA9hu-1_HC2LC2 (antibody, V domains shown)
VH: B26 VH with Q3R, V48L, K78T, V95I, M119L
VL: B26 VL with S10T, E42N, D70E, S76G, E81D, A84V, L104V
notes: Humanized from murine VII/20; also called HC2LC2 (CA9hu-1)
B29: CA9hu-1_HC1LC5 (antibody, V domains shown)
VH: B26 VH with G49A, T90I, M119T
VL: B26 VL with E42K, L73F, F83I
notes: Humanized from murine VII/20; also called HC1LC5 (CA9hu-1)
B30: CA9hu-1_HC1LC3 (antibody, V domains shown)
VH: B26 VH with G49A, T90I, M119T
VL: B26 VL
notes: Humanized from murine VII/20; also called HC1LC3 (CA9hu-1)
B31: CA9hu-1_HC2LC1 (antibody, V domains shown)
VH: B26 VH with Q3R, V48L, K78T, V95I, M119L
VL: B26 VL with E42K, K45N, D70H, F83I, Q100G, L104V
notes: Humanized from murine VII/20; also called HC2LC1 (CA9hu-1)
B32: CA9hu-1_HC1LC2 (antibody, V domains shown)
VH: B26 VH with G49A, T90I, M119T
VL: B26 VL with S10T, E42N, D70E, S76G, E81D, A84V, L104V
notes: Humanized from murine VII/20; also called HC1LC2 (CA9hu-1)
B33: CA9hu-1_HC1LC1 (antibody, V domains shown)
VH: B26 VH with G49A, T90I, M119T
VL: B26 VL with E42K, K45N, D70H, F83I, Q100G, L104V
notes: Humanized from murine VII/20; also called HC1LC1 (CA9hu-1)
B34: CA9hu-2 chimeric HC0LC0 (antibody, V domains shown)
VH: EVQLVETGGGLVQPKGSLKLSCAASGFTFNTNAMHWVRQAPGKGLEWVARIRSKSNNYTTYYADSVKDRFTISRDDSQSMLYLQMNNLKTEDTAMYYCVCGSWFAYWGQGTLVTVSA
VL: DIVMTQSPSSLAMSLGQKVTMSCKSSQSLLNSSNQKNYLAWFQQKPGQSPKLLVYFTSTRQSGVPDRFIGSGSGTDFTLTISSVQAEDLADYFCQQHYSIPLTFGAGTKLELK
notes: also called HC0LC0 (CA9hu-2)

Target: CA IX expressed by cells (C-33a_CA IX transfectants; hypoxic BT-20, JIMT-1, 8-MG-BA and 42-MG-BA cells) (human, UniProt Q16790 38-459)
Assay: cell-based or functional assay

Row | Binder | ADCC reporter luminescence, C-33a_CA IX against C-33a_neo cells
1 | B1 | 2 times
2 | B2 | 2 times
3 | B3 | 2 times
4 | B4 | 2 times
5 | B5 | 2 times
6 | B6 | 2 times
7 | B7 | 2 times
8 | B8 | 2 times
9 | B9 | 2 times
10 | B10 | 2 times
11 | B11 | 2 times
12 | B12 | 2 times
13 | B13 | 2 times
14 | B14 | 2 times
15 | B15 | 2 times
16 | B16 | 2 times
17 | B17 | 2 times
18 | B18 | 2 times
19 | B19 | 2 times
20 | B20 | 2 times
21 | B21 | 2 times
22 | B22 | 2 times
23 | B23 | 2 times
24 | B24 | 2 times
25 | B25 | 2 times

Target: T1, recombinant human CA IX (human, UniProt Q16790 38-414)
Assay: SPR (Biacore 2000), antibody captured on CM5 chip, rh CA IX in flow, 25 C
Protocol: (§1) In order to determinate the antigen-binding affinity of humanized variants, measurements of affinity constant (KD) for antibodies binding to CA IX were performed by SPR using a Biacore 2000 (T200 in case of CA9hu-2) instrument (GE Healthcare, Piscataway, NJ USA). Each humanized antibody variant was captured on the CM5 sensor chip and recombinant human CA IX (rh CA IX; 42 kDa; R&D Systems, Inc., Minneapolis MN, USA) protein as an antigen was added to the buffer flowing over the chip. The setting details of quantitative interaction analysis between humanized antibodies and rh CA IX were as follows: flow rate 30 μl/min; analysis temperature 25° C.; analysis buffer (10mM HEPES pH 7.4, 150 mM NaCl, […], 0.05% Tween 20). Results from SPR analysis are expressed as the equilibrium dissociation constant (KD) (Table 7).

Row | Binder | Kd
26 | B26 | 56 nM
27 | B27 | 100 nM
28 | B28 | 53 nM
29 | B29 | 96 nM
30 | B30 | 96 nM
31 | B31 | 60 nM
32 | B32 | 80 nM
33 | B33 | 97 nM

Target: T1, recombinant human CA IX
Assay: SPR (Biacore T200), antibody captured on CM5 chip, rh CA IX in flow, 25 C
Protocol: as §1

Row | Binder | Kd
34 | B1 | 71.3 nM
35 | B2 | 62.3 nM
36 | B3 | 40.1 nM
37 | B4 | 37.4 nM
38 | B5 | 32.7 nM
39 | B6 | 73.1 nM
40 | B7 | 41.9 nM
41 | B8 | 69.8 nM
42 | B9 | 105 nM
43 | B10 | 74.6 nM
44 | B11 | 44 nM
45 | B12 | 53.9 nM
46 | B13 | 39.6 nM
47 | B14 | 74.9 nM
48 | B15 | 98.3 nM
49 | B16 | 47.3 nM
50 | B17 | 87.7 nM
51 | B18 | 56.1 nM
52 | B19 | 60.5 nM
53 | B20 | 65.1 nM
54 | B21 | 60.1 nM
55 | B22 | 70.5 nM
56 | B23 | 57.2 nM
57 | B24 | 54.3 nM
58 | B25 | 44.2 nM
59 | B34 | 13.1 nM
